Test results published in IntAct's records for PubMed 11168407.

B1: Serine acetyltransferase 3, mitochondrial (Arabidopsis thaliana (Mouse-ear cress)), Q39218 (parent)
chain: MLPVTSRRHFTMSLYMLRSSSPHINHHSFLLPSFVSSKFKHHTLSPPPSPPPPPPMAACIDTCRTGKPQISPRDSSKHHDDESGFRYMNYFRYPDRSSFNGTQTKTLHTRPLLEDLDRDAEVDDVWAKIREEAKSDIAKEPIVSAYYHASIVSQRSLEAALANTLSVKLSNLNLPSNTLFDLFSGVLQGNPDIVESVKLDLLAVKERDPACISYVHCFLHFKGFLACQAHRIAHELWTQDRKILALLIQNRVSEAFAVDFHPGAKIGTGILLDHATAIVIGETAVVGNNVSILHNVTLGGTGKQCGDRHPKIGDGVLIGAGTCILGNITIGEGAKIGAGSVVLKDVPPRTTAVGNPARLLGGKDNPKTHDKIPGLTMDQTSHISEWSDYVI

Variants of: B1
Conditions: with cyskm_arath OASC

effect of a mutation on the interaction | Variant
increasing interaction | MLPVTSRRHFTMSLYMLRSSSPHINHHSFLLPSFVSSKFKHHTLSPPPSPPPPPPMAACIDTCRTGKPQISPRDSSKHHDDESGFRYMNYFRYPDRSSFNGTQTKTLHTRPLLEDLDRDAEVDDVWAKIREEAKSDIAKEPIVSAYYHASIVSQRSLEAALANTLSVKLSNLNLPSNTLFDLFSGVLQGNPDIVESVKLDLLAVKERDPACISYVHCFLHFKGFLACQAHRIAHELWTQDRKILALLIQNRVSEAFAVDFHPGAKIGTGILLDHATAIVIGETAVVGNNVSILHNVTLGGTGKQCGDRAPKIGDGVLIGAGTCILGNITIGEGAKIGAGSVVLKDVPPRTTAVGNPARLLGGKDNPKTHDKIPGLTMDQTSHISEWSDYVI [H309A]
disrupting interaction | MLPVTSRRHFTMSLYMLRSSSPHINHHSFLLPSFVSSKFKHHTLSPPPSPPPPPPMAACIDTCRTGKPQISPRDSSKHHDDESGFRYMNYFRYPDRSSFNGTQTKTLHTRPLLEDLDRDAEVDDVWAKIREEAKSDIAKEPIVSAYYHASIVSQRSLEAALANTLSVKLSNLNLPSNTLFDLFSGVLQGNPDIVESVKLDLLAVKERDPACISYVHCFLHFKGFLACQAHRIAHELWTQDRKILALLIQNRVSEAFAVDFHPGAKIGTGILLDHATAIVIGETAVVGNNVSILHNVTLGGTGKQCGDRHPKIGDGVLIGAGTCILGNITIGEGAKIGAGSVVLKDVPPRTTAAGNPARLLGGKDNPKTHDKIPGLTMDQTSHISEWSDYVI [V353A]

Variants of: B1
Conditions: with cyskm_arath OASC
Remark: another data set of the same source

effect of a mutation on the interaction | Variant
decreasing interaction | MLPVTSRRHFTMSLYMLRSSSPHINHHSFLLPSFVSSKFKHHTLSPPPSPPPPPPMAACIDTCRTGKPQISPRDSSKHHDDESGFRYMNYFRYPDRSSFNGTQTKTLHTRPLLEDLDRDAEVDDVWAKIREEAKSDIAKEPIVSAYYHASIVSQRSLEAALANTLSVKLSNLNLPSNTLFDLFSGVLQGNPDIVESVKLDLLAVKERDPACISYVHCFLHFKGFLACQAHRIAHELWTQDRKILALLIQNRVSEAFAVDFHPGAKIGTGILLDHATAIVIGETAVVGNNVSILHNVTLGGTGKQCGDRHPKIGDGVLIGAGTCILGNITIGEGAKIGAGSVVLKDVPPRTTAEGNPARLLGGKDNPKTHDKIPGLTMDQTSHISEWSDYVI [V353E]
decreasing interaction | MLPVTSRRHFTMSLYMLRSSSPHINHHSFLLPSFVSSKFKHHTLSPPPSPPPPPPMAACIDTCRTGKPQISPRDSSKHHDDESGFRYMNYFRYPDRSSFNGTQTKTLHTRPLLEDLDRDAEVDDVWAKIREEAKSDIAKEPIVSAYYHASIVSQRSLEAALANTLSVKLSNLNLPSNTLFDLFSGVLQGNPDIVESVKLDLLAVKERDPACISYVHCFLHFKGFLACQAHRIAHELWTQDRKILALLIQNRVSEAFAVDFHPGAKIGTGILLDHATAIVIGATAVVGNNVSILHNVTLGGTGKQCGDRHPKIGDGVLIGAGTCILGNITIGEGAKIGAGSVVLKDVPPRTTAVGNPARLLGGKDNPKTHDKIPGLTMDQTSHISEWSDYVI [E282A]
